Test results taken from patent US20250019439A1 (Adimab, published 2025).

Legend:
ADI-26909 = target: T1, ADI-26909; assay: SPR Carterra avidity, yeast anti-ID
T1 construct: anti-CD3 antibody made in CHO cells, captured by anti-human Fc
Method: (§1) Kinetic analysis was conducted at 25° C. in an HBSTE running buffer system (Carterra Cat #3630) using a Carterra LSA (Carterra USA, Salt Lake City, UT). The sample compartment was maintained at 20° C. for the duration of each experiment.
(§2) For antibody capture experiments, a goat anti-human Fc antibody (Jackson ImmunoResearch) was covalently coupled to an HC30M sensor chip surface via standard amine coupling (1:1 EDC:NHS) and then blocked with ethanolamine (1.0 M, pH 8.5). Covalent coupling steps were performed in 25 mM MES buffer (Carterra, Cat #3625) plus 0.05% Tween20. The anti-CD3 antibodies (100 nM in running buffer) were flowed over discrete regions of interest on the chip surface for 5 minutes. […] Dissociation of the anti-idiotype antibodies was monitored for 300s. Several blank buffer samples were injected over the entire chip surface at the start of each non-regenerative kinetic cycle. The preceding blank buffer injection was used for blank surface subtraction. At the end of each non-regenerative kinetic cycle, all surfaces were regenerated via two 30s injections of 10 mM glycine, pH 1.7.
(§3) For data processing and fitting, sensorgrams were double reference subtracted with a baseline drift correction of 4 RU. Sensorgrams were y-aligned and baseline corrected, filtered and cropped to include only the association and dissociation steps. Data was fitted to a 1:1 binding model using Carterra Kinetics Data Analysis software version 1.7.1.3055.

ADI-48587 = target: T2, ADI-48587; assay: SPR Carterra avidity, yeast anti-ID
T2 construct: pH-dependent anti-CD3 antibody made in CHO cells
Method: as §1, §2, §3

ADI-67450 = target: T3, ADI-67450; assay: SPR Carterra avidity, yeast anti-ID
T3 construct: anti-CD3 antibody made in CHO cells, captured by anti-human Fc
Method: as §1, §2, §3

ADI-76360 = target: T4, ADI-76360; assay: SPR Carterra avidity, yeast anti-ID
T4 construct: anti-CD3 antibody made in CHO cells, captured by anti-human Fc
Method: as §1, §2, §3

CTL-62223 = target: T5, CTL-62223; assay: SPR Carterra avidity, yeast anti-ID
T5 construct: also called mosunetuzumab
Method: as §1, §2, §3

ADI-50024 = target: T6, ADI-50024; assay: SPR Carterra avidity, yeast anti-ID
T6 construct: anti-CD3 antibody made in CHO cells, captured by anti-human Fc
Method: as §1, §2, §3

ADI-26916 IgG = target: T7, ADI-26916 IgG; assay: SPR Carterra avidity, yeast anti-ID
T7 construct: anti-CD3 IgG
Method: as §1, §2, §3

ADI-67445 = target: T8, ADI-67445; assay: SPR Carterra avidity, yeast anti-ID
T8 construct: anti-CD3 antibody made in CHO cells, captured by anti-human Fc
Method: as §1, §2, §3

ADI-70326 = target: T9, ADI-70326; assay: SPR Carterra avidity, yeast anti-ID
T9 construct: anti-CD3 antibody made in CHO cells, captured by anti-human Fc
Method: as §1, §2, §3

ADI-26906 IgG = target: T10, ADI-26906 IgG; assay: SPR Carterra avidity, yeast anti-ID
T10 construct: anti-CD3 IgG
Method: as §1, §2, §3

ADI-70327 = target: T11, ADI-70327; assay: SPR Carterra avidity, yeast anti-ID
T11 construct: anti-CD3 antibody made in CHO cells, captured by anti-human Fc
Method: as §1, §2, §3

ADI-26913 IgG = target: T12, ADI-26913 IgG; assay: SPR Carterra avidity, yeast anti-ID
T12 construct: anti-CD3 IgG
Method: as §1, §2, §3

ADI-76362 = target: T13, ADI-76362; assay: SPR Carterra avidity, yeast anti-ID
T13 construct: anti-CD3 antibody made in CHO cells, captured by anti-human Fc
Method: as §1, §2, §3

ADI-76359 = target: T14, ADI-76359; assay: SPR Carterra avidity, yeast anti-ID
T14 construct: anti-CD3 antibody made in CHO cells, captured by anti-human Fc
Method: as §1, §2, §3

ADI-48576 = target: T15, ADI-48576; assay: SPR Carterra avidity, yeast anti-ID
T15 construct: pH-dependent anti-CD3 antibody made in CHO cells
Method: as §1, §2, §3

ADI-70330 = target: T16, ADI-70330; assay: SPR Carterra avidity, yeast anti-ID
T16 construct: anti-CD3 antibody made in CHO cells, captured by anti-human Fc
Method: as §1, §2, §3

ADI-48592 = target: T17, ADI-48592; assay: SPR Carterra avidity, yeast anti-ID
T17 construct: pH-dependent anti-CD3 antibody made in CHO cells
Method: as §1, §2, §3

ADI-74966 = target: T18, ADI-74966; assay: SPR Carterra avidity, yeast anti-ID
T18 construct: pH-dependent anti-CD3 antibody made in CHO cells
Method: as §1, §2, §3

ADI-26919 = target: T19, ADI-26919; assay: SPR Carterra avidity, yeast anti-ID
T19 construct: anti-CD3 antibody made in CHO cells, captured by anti-human Fc
Method: as §1, §2, §3

ADI-76361 = target: T20, ADI-76361; assay: SPR Carterra avidity, yeast anti-ID
T20 construct: anti-CD3 antibody made in CHO cells, captured by anti-human Fc
Method: as §1, §2, §3

ADI-74965 = target: T21, ADI-74965; assay: SPR Carterra avidity, yeast anti-ID
T21 construct: pH-dependent anti-CD3 antibody made in CHO cells
Method: as §1, §2, §3

ADI-48650 = target: T22, ADI-48650; assay: SPR Carterra avidity, yeast anti-ID
T22 construct: pH-dependent anti-CD3 antibody made in CHO cells
Method: as §1, §2, §3

ADI-26943 = target: T23, ADI-26943; assay: SPR Carterra avidity, yeast anti-ID
T23 construct: anti-CD3 antibody made in CHO cells, captured by anti-human Fc
Method: as §1, §2, §3

ADI-76358 = target: T24, ADI-76358; assay: SPR Carterra avidity, yeast anti-ID
T24 construct: anti-CD3 antibody made in CHO cells, captured by anti-human Fc
Method: as §1, §2, §3

ADI-74968 = target: T25, ADI-74968; assay: SPR Carterra avidity, yeast anti-ID
T25 construct: pH-dependent anti-CD3 antibody made in CHO cells
Method: as §1, §2, §3

ADI-76357 = target: T26, ADI-76357; assay: SPR Carterra avidity, yeast anti-ID
T26 construct: anti-CD3 antibody made in CHO cells, captured by anti-human Fc
Method: as §1, §2, §3

ADI-74967 = target: T27, ADI-74967; assay: SPR Carterra avidity, yeast anti-ID
T27 construct: pH-dependent anti-CD3 antibody made in CHO cells
Method: as §1, §2, §3

ADI-26921 IgG = target: T28, ADI-26921 IgG; assay: SPR Carterra avidity, yeast anti-ID
T28 construct: anti-CD3 IgG
Method: as §1, §2, §3

CTL-62240 = target: T29, CTL-62240; assay: SPR Carterra, yeast anti-ID
T29 construct: also called ONO-4685
Method: as §1, §2, §3

CTL-62227 = target: T30, CTL-62227; assay: SPR Carterra, yeast anti-ID
T30 construct: also called odronextamab
Method: as §1, §2, §3

CTL-62228 = target: T31, CTL-62228; assay: SPR Carterra, yeast anti-ID
T31 construct: also called glofitamab
Method: as §1, §2, §3

ADI-26920 IgG = target: T32, ADI-26920 IgG; assay: SPR Carterra avidity, yeast anti-ID, *koff limit
T32 construct: anti-CD3 IgG
Method: as §1, §2, §3

ADI-67447 = target: T33, ADI-67447; assay: SPR Carterra avidity, yeast anti-ID, *koff limit
T33 construct: anti-CD3 antibody made in CHO cells, captured by anti-human Fc
Method: as §1, §2, §3

ADI-26924 = target: T34, ADI-26924; assay: SPR Carterra avidity, yeast anti-ID, *koff limit
T34 construct: anti-CD3 antibody made in CHO cells, captured by anti-human Fc
Method: as §1, §2, §3

T3 sequence (VH, as listed by the source limits assumed, chain 1 of 2): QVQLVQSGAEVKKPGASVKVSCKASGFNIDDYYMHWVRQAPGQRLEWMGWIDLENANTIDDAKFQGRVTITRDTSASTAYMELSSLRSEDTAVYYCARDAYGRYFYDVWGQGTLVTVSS
T3 sequence (VL, as listed by the source limits assumed, chain 2 of 2): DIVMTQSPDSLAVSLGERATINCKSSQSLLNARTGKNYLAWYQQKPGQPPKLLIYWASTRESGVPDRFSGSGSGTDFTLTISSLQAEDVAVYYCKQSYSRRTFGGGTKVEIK
T9 sequence (VH, as listed by the source limits assumed, chain 1 of 2): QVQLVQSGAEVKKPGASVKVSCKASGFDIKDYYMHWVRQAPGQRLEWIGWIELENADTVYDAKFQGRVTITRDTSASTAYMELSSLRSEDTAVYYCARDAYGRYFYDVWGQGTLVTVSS
T9 sequence (VL, as listed by the source limits assumed, chain 2 of 2): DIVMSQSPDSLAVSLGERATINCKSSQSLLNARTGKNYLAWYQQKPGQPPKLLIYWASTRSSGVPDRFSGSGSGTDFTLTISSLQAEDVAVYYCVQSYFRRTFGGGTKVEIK
T11 sequence (VH, as listed by the source limits assumed, chain 1 of 2): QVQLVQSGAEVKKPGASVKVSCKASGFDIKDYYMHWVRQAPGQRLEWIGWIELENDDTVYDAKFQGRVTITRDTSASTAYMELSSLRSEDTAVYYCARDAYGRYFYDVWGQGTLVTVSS
T6 sequence (VH, as listed by the source limits assumed, chain 1 of 2): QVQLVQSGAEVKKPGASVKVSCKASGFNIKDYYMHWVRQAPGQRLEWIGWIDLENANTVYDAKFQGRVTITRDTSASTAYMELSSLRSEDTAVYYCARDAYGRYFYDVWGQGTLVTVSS
T1 sequence (VH, as listed by the source limits assumed, chain 1 of 2): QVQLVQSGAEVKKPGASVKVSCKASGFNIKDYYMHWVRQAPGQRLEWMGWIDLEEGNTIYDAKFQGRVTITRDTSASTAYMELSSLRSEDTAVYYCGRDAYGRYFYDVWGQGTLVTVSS
T15 sequence (VH, as listed by the source, chain 1 of 2): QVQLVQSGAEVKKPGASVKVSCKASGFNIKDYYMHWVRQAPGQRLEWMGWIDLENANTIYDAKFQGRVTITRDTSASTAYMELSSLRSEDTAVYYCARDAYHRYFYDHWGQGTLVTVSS
T15 sequence (VL, as listed by the source, chain 2 of 2): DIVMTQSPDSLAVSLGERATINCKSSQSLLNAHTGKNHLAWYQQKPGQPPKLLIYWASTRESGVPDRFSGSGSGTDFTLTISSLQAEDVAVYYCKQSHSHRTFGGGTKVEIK
T29 sequence (VH, as listed by the source, chain 1 of 2): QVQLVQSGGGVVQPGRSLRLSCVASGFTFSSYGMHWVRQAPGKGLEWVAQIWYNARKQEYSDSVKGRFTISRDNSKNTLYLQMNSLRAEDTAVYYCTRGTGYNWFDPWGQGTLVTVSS
T29 sequence (VL, as listed by the source, chain 2 of 2): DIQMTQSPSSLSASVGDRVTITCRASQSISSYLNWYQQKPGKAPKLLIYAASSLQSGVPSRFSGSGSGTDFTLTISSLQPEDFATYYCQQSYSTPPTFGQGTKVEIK
T32 sequence (VH, as listed by the source limits assumed, chain 1 of 2): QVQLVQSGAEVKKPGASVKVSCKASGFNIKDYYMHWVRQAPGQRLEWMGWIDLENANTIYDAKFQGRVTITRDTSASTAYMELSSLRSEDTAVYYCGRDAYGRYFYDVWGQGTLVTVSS
T32 sequence (VL, as listed by the source limits assumed, chain 2 of 2): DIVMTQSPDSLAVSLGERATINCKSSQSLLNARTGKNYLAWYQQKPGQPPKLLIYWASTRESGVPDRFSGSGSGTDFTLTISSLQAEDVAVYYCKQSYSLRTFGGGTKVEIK
T7 sequence (VH, as listed by the source, chain 1 of 2): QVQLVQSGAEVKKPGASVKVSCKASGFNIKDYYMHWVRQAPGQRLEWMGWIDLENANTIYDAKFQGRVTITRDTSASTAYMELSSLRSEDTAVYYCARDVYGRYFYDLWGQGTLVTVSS
T26 sequence (VH, as listed by the source, chain 1 of 2): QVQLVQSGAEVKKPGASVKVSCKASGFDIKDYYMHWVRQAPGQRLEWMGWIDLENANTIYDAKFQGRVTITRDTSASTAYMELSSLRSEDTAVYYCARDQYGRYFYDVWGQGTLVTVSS
T5 sequence (VH, as listed by the source, chain 1 of 2): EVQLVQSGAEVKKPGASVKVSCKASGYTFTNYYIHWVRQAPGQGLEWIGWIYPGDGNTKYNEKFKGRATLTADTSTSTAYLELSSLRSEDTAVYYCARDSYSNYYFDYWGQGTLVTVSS
T5 sequence (VL, as listed by the source, chain 2 of 2): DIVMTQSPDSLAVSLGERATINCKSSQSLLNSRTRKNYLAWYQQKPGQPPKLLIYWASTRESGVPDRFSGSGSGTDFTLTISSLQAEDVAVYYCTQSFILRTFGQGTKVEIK
T30 sequence (VH, as listed by the source, chain 1 of 2): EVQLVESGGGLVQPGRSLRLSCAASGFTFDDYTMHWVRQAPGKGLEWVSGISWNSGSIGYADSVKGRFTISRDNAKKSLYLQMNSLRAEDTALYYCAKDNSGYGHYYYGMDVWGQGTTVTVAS
T30 sequence (VL, as listed by the source, chain 2 of 2): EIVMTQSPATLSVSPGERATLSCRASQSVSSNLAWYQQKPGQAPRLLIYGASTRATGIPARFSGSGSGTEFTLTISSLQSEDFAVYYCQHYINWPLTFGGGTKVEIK
T16 sequence (VH, as listed by the source limits assumed, chain 1 of 2): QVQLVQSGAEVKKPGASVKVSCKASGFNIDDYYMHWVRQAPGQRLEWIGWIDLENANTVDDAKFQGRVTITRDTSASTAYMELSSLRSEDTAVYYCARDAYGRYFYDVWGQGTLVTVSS
T34 sequence (VH, as listed by the source, chain 1 of 2): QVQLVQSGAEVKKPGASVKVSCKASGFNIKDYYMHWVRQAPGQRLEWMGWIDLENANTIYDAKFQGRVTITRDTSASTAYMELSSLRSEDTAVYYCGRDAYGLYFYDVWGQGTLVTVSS
T20 sequence (VH, as listed by the source, chain 1 of 2): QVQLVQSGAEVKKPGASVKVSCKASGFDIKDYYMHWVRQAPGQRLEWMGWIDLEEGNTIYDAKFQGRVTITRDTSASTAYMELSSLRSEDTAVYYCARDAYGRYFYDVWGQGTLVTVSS
T4 sequence (VH, as listed by the source, chain 1 of 2): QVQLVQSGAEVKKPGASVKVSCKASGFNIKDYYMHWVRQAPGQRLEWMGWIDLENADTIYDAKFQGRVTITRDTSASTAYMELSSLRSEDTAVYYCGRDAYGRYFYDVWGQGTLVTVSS
T24 sequence (VH, as listed by the source, chain 1 of 2): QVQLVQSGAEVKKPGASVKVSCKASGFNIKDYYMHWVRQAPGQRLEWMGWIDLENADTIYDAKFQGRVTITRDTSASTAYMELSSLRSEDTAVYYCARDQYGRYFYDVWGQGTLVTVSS
T17 sequence (VH, as listed by the source, chain 1 of 2): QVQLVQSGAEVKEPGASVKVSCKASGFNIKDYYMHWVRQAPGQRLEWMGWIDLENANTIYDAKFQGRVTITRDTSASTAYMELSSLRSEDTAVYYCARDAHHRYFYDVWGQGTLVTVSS
T17 sequence (VL, as listed by the source, chain 2 of 2): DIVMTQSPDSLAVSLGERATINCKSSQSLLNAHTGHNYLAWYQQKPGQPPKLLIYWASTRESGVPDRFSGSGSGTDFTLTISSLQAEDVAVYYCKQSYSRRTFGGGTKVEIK

B1: ADI-34146 (antibody, V domains shown)
VH: EVQLLESGGGLVQPGGSLRLSCAASGFTFSSYAMSWVRQAPGKGLEWVSTISGSGGSTYYADSVKGRFTISRDNSKNTLYLQMNSLRAEDTAVYYCARLGGRRGSGSSYYYYYGMDVWGQGTTVTVSS
VL: not shown
notes: anti-ID IgG
Kd (ADI-26909): 640 pM
Kd (ADI-48587): 790 pM
Kd (ADI-67450): 1800 pM
Kd (ADI-76360): 570 pM
Kd (CTL-62223): 4500 pM
Kd (ADI-50024): 1100 pM
Kd (ADI-26916 IgG): 1800 pM
Kd (ADI-67445): 930 pM
Kd (ADI-70326): 3900 pM
Kd (ADI-26906 IgG): 630 pM
Kd (ADI-70327): 1700 pM
Kd (ADI-26913 IgG): 550 pM
Kd (ADI-76362): 1400 pM
Kd (ADI-76359): 390 pM
Kd (ADI-48576): 12000 pM
Kd (ADI-70330): 1200 pM
Kd (ADI-48592): 16000 pM
Kd (ADI-74966): 860 pM
Kd (ADI-26919): 350 pM
Kd (ADI-76361): 240 pM
Kd (ADI-74965): 750 pM
Kd (ADI-48650): 3300 pM
Kd (ADI-26943): 870 pM
Kd (ADI-76358): 2900 pM
Kd (ADI-74968): 410 pM
Kd (ADI-76357): 540 pM
Kd (ADI-74967): 500 pM
Kd (ADI-26921 IgG): 240 pM
binding result (CTL-62240): no binding (tested: up to 200 nM)
binding result (CTL-62227): no binding (tested: up to 200 nM)
binding result (CTL-62228): no binding (tested: up to 200 nM)
Kd (ADI-26920 IgG): 290 pM
Kd (ADI-67447): 350 pM
Kd (ADI-26924): 250 pM
